Measurements taken from paper PMC10991250, “Efficient synthesis 1,4-cyclohexanedicarboxaldehyde by an engineered alcohol oxidase” (Bioresources and Bioprocessing, 2022).
Substitutions are numbered along the chain they refer to. Names and notes keep the numbering of the source.

B1: AcCO (Pseudarthrobacter chlorophenolicus A6) (protein)
chain: MHIDNIENLSDRGFDYVVIGGGSAGAAVAARLSEDPDVSVALVEAGPDDRNIPEILQLDRWMELLESGYDWDYPIEPQENGNSFMRHARAKVMGGCSSHNSCIAFWAPREDLDEWESKYGATGWNAANAWPLYKRLETNQDAGPDAPHHGDSGPVHLMNVPPADPSGVALLDACEEAGIPRARFNTGTTVVNGANFFQINRRGDGTRSSSSVSYIHPIIERDNFTLLTGLRARQLVFDADKRCTGVEVVDGAFGRTHRLTARHEVILSTGAIDSPKLLMLSGIGPAEHLAQHGIEVLVDSPGVGENLQDHPEGVVQFEAKQPMVQTSTQWWEIGIFTPTEDGLDRPDLMMHYGSVPFDMNTLRHGYPTTENGFSLTPNVTHARSRGTVRLRSRDFRDKPMVDPRYFTDPEGHDMRVMVAGIRKAREIAAQPAMSAWTGRELSPGVGAQTDEELQDYIRKTHNTVYHPVGTVRMGADDDGMSPLDARLRVKGVTGLRVADASVMPEHVTVNPNITVMMIGERCADLIKADYAGADALEEKELTTSFA
notes: codon-optimized synthetic gene in pET-28a(+) (BamHI/EcoRI), E. coli BL21(DE3), purified by AKTA; FAD-dependent
B2: AcCO (Pseudarthrobacter chlorophenolicus A6; H351V/N378S/S101A) (protein)
chain: B1 chain with S101A, H351V, N378S
notes: as for B1
B3: AcCO (Pseudarthrobacter chlorophenolicus A6; H351V) (protein)
chain: B1 chain with H351V
notes: as for B1
B4: AcCO (Pseudarthrobacter chlorophenolicus A6; S101A) (protein)
chain: B1 chain with S101A
notes: as for B1
B5: AcCO (Pseudarthrobacter chlorophenolicus A6; H351V/S101A) (protein)
chain: B1 chain with S101A, H351V
notes: as for B1
B6: AcCO (Pseudarthrobacter chlorophenolicus A6; H351V/N378S/Q329N/S101A) (protein)
chain: B1 chain with S101A, Q329N, H351V, N378S
notes: as for B1

substrate: OCC1CCC(CO)CC1; assay: initial rate of HMCA formation by GC, Michaelis-Menten fit; type: biochemical, Pseudarthrobacter chlorophenolicus; conditions: 1-100 mM CHDM, air-saturated O2, 100 mM potassium phosphate pH 8.0, 30 °C, 5% DMSO, 0.1 g/L catalase
Description: initial rate of HMCA formation by GC, Michaelis-Menten fit on AcCO

Protein	Km [mM]	kcat [s⁻¹]	kcat/Km [M⁻¹ s⁻¹]
B1	15.30 ± 0.14	0.00267 ± 0.000467	0.167
B2	7.63 ± 0.72	0.0312 ± 0.002	4
B3	13.36 ± 0.12	0.00683 ± 0.00045	0.517
B4	13.45 ± 0.23	0.00617 ± 0.00107	0.45
B5	10.21 ± 0.46	0.02183 ± 0.000183	2.17
B6	1.12 ± 0.19	0.0367 ± 0.00717	32.7

substrate: O=CC1CCC(CO)CC1; assay: initial rate of CHDA formation by GC, Michaelis-Menten fit; type: biochemical, Pseudarthrobacter chlorophenolicus; conditions: 1-100 mM HMCA, air-saturated O2, 100 mM potassium phosphate pH 8.0, 30 °C, 5% DMSO, 0.1 g/L catalase
Description: initial rate of CHDA formation by GC, Michaelis-Menten fit on AcCO

Protein	Km [mM]	kcat [s⁻¹]	kcat/Km [M⁻¹ s⁻¹]
B1	26.81 ± 0.19	0.000717 ± 0.000217	0.0267
B2	6.81 ± 0.13	0.00883 ± 0.002	1.3
B3	16.24 ± 0.11	0.004 ± 0.000367	0.247
B4	20.42 ± 0.12	0.00233 ± 0.000367	0.114
B5	14.44 ± 0.46	0.00683 ± 0.000233	0.473
B6	5.24 ± 0.28	0.0157 ± 0.000717	3
